From US20230002480A1

Tests used:
Experiment in all cases: cell-based or functional assay
[1] = molecular target: HIV-1 Env of pseudovirus 1006_11_C3_1601 (HIV-1)
[2] = molecular target: HIV-1 Env of pseudovirus 1012_11_TC21_3257 (HIV-1)
[3] = molecular target: HIV-1 Env of pseudovirus 1394C9G1(Rev-) (HIV-1)
[4] = molecular target: HIV-1 Env of pseudovirus 191955_A11 (HIV-1)
[5] = molecular target: HIV-1 Env of pseudovirus 211-9 (HIV-1)
[6] = molecular target: HIV-1 Env of pseudovirus 231965.c01 (HIV-1)
[7] = molecular target: HIV-1 Env of pseudovirus 235-47 (HIV-1)
[8] = molecular target: HIV-1 Env of pseudovirus 249M B10 (HIV-1)
[9] = molecular target: HIV-1 Env of pseudovirus 3103.v3.c10 (HIV-1)
[10] = molecular target: HIV-1 Env of pseudovirus 6041.v3.c23 (HIV-1)
[11] = molecular target: HIV-1 Env of pseudovirus 62357_14_D3_4589 (HIV-1)
[12] = molecular target: HIV-1 Env of pseudovirus 6240_08_TA5_4622 (HIV-1)
[13] = molecular target: HIV-1 Env of pseudovirus 6480.v4.c25 (HIV-1)
[14] = molecular target: HIV-1 Env of pseudovirus 6545.v4.c1 (HIV-1)
[15] = molecular target: HIV-1 Env of pseudovirus BF1266.431a (HIV-1)
[16] = molecular target: HIV-1 Env of pseudovirus BJOX009000.02.4 (HIV-1)
[17] = molecular target: HIV-1 Env of pseudovirus BJOX015000.11.5 (HIV-1)
[18] = molecular target: HIV-1 Env of pseudovirus C4118.c09 (HIV-1)
[19] = molecular target: HIV-1 Env of pseudovirus CAP45.2.00.G3 (HIV-1)
[20] = molecular target: HIV-1 Env of pseudovirus CNE17 (HIV-1)
[21] = molecular target: HIV-1 Env of pseudovirus CNE19 (HIV-1)
[22] = molecular target: HIV-1 Env of pseudovirus CNE30 (HIV-1)
[23] = molecular target: HIV-1 Env of pseudovirus CNE58 (HIV-1)
[24] = molecular target: HIV-1 Env of pseudovirus Ce703010054_2A2 (HIV-1)
[25] = molecular target: HIV-1 Env of pseudovirus Du156.12 (HIV-1)
[26] = molecular target: HIV-1 Env of pseudovirus Du422.1 (HIV-1)
[27] = molecular target: HIV-1 Env of pseudovirus HIV-16055-2.3 (HIV-1)
[28] = molecular target: HIV-1 Env of pseudovirus P0402_c2_11 (HIV-1)
[29] = molecular target: HIV-1 Env of pseudovirus Q259.d2.17 (HIV-1)
[30] = molecular target: HIV-1 Env of pseudovirus Q842.d12 (HIV-1)
[31] = molecular target: HIV-1 Env of pseudovirus R2184.c04 (HIV-1)
[32] = molecular target: HIV-1 Env of pseudovirus RHPA4259.7 (HIV-1)
[33] = molecular target: HIV-1 Env of pseudovirus SC422661.8 (HIV-1)
[34] = molecular target: HIV-1 Env of pseudovirus X1254_c3 (HIV-1)
[35] = molecular target: HIV-1 Env of pseudovirus X1632_S2_B10 (HIV-1)
[36] = molecular target: HIV-1 Env of pseudovirus ZM109F.PB4 (HIV-1)
[37] = molecular target: HIV-1 Env of pseudovirus ZM53M.PB12 (HIV-1)

NIH 45-46 (antibody) gave a neutralization IC50 [1] of 0.05 µg/mL, a neutralization IC80 [1] of 0.31 µg/mL and a neutralization IC50 [2] of 0.01 µg/mL. The neutralization IC80 [2] was 0.04 µg/mL, the neutralization IC50 [3] was 0.09 µg/mL and the neutralization IC80 [3] was 0.38 µg/mL. For the same substance, the neutralization IC50 [4] was 0.11 µg/mL, the neutralization IC80 [4] was 0.43 µg/mL and the IC50, titer in TZM.bl cells [5] was > 50 µg/mL. The IC80, titer in TZM.bl cells [5] was > 50 µg/mL, the IC50, titer in TZM.bl cells [6] was 0.1 µg/mL and the IC80, titer in TZM.bl cells [6] was 0.1 µg/mL. The IC50, titer in TZM.bl cells [7] was 0.3 µg/mL, the IC80, titer in TZM.bl cells [7] was 1.49 µg/mL and the neutralization IC50 [8] was 0.04 µg/mL. It also gave a neutralization IC80 [8] of 0.17 µg/mL, an IC50, titer in TZM.bl cells [9] of 1.66 µg/mL and an IC80, titer in TZM.bl cells [9] of 6.57 µg/mL. It also gave an IC50, titer in TZM.bl cells [10] of 0.01 µg/mL, an IC80, titer in TZM.bl cells [10] of 0.04 µg/mL and a neutralization IC50 [11] of 0.05 µg/mL. It also gave a neutralization IC80 [11] of 0.22 µg/mL, a neutralization IC50 [12] of 0.44 µg/mL and a neutralization IC80 [12] of 1.55 µg/mL. The IC50, titer in TZM.bl cells [13] was 0.02 µg/mL, the IC80, titer in TZM.bl cells [13] was 0.08 µg/mL and the IC50, titer in TZM.bl cells [14] was > 50 µg/mL. The IC80, titer in TZM.bl cells [14] was > 50 µg/mL, the neutralization IC50 [15] was 0.01 µg/mL and the neutralization IC80 [15] was 0.03 µg/mL. For the same substance, the IC50, titer in TZM.bl cells [16] was 0.26 µg/mL, the IC80, titer in TZM.bl cells [16] was 1.16 µg/mL and the IC50, titer in TZM.bl cells [17] was 0.06 µg/mL. It also gave an IC80, titer in TZM.bl cells [17] of 0.38 µg/mL, an IC50, titer in TZM.bl cells [18] of 0.14 µg/mL and an IC80, titer in TZM.bl cells [18] of 0.91 µg/mL. For the same substance, the neutralization IC50 [19] was > 50 µg/mL, the neutralization IC80 [19] was > 50 µg/mL and the neutralization IC50 [20] was 0.15 µg/mL. For the same substance, the neutralization IC80 [20] was 0.55 µg/mL, the neutralization IC50 [21] was 0.07 µg/mL and the neutralization IC80 [21] was 0.37 µg/mL. It also gave a neutralization IC50 [22] of 0.34 µg/mL, a neutralization IC80 [22] of 1.48 µg/mL and a neutralization IC50 [23] of 0.25 µg/mL. It also gave a neutralization IC80 [23] of 1.49 µg/mL, a neutralization IC50 [24] of 0.22 µg/mL and a neutralization IC80 [24] of 0.97 µg/mL. For the same substance, the neutralization IC50 [25] was 0.01 µg/mL, the neutralization IC80 [25] was 0.05 µg/mL and the neutralization IC50 [26] was > 50 µg/mL. For the same substance, the neutralization IC80 [26] was > 50 µg/mL, the neutralization IC50 [27] was 0.02 µg/mL and the neutralization IC80 [27] was 0.06 µg/mL. The IC50, titer in TZM.bl cells [28] was 0.06 µg/mL, the IC80, titer in TZM.bl cells [28] was 0.26 µg/mL and the neutralization IC50 [29] was 0.01 µg/mL. It also gave a neutralization IC80 [29] of 0.06 µg/mL, a neutralization IC50 [30] of 0.03 µg/mL and a neutralization IC80 [30] of 0.03 µg/mL. For the same substance, the IC50, titer in TZM.bl cells [31] was 0.03 µg/mL, the IC80, titer in TZM.bl cells [31] was 0.12 µg/mL and the neutralization IC50 [32] was < 0.05 µg/mL. The neutralization IC80 [32] was < 0.05 µg/mL, the neutralization IC50 [33] was 0.01 µg/mL and the neutralization IC80 [33] was 0.07 µg/mL. For the same substance, the IC50, titer in TZM.bl cells [34] was 0.08 µg/mL, the IC80, titer in TZM.bl cells [34] was 0.08 µg/mL and the IC50, titer in TZM.bl cells [35] was 0.07 µg/mL. For the same substance, the IC80, titer in TZM.bl cells [35] was > 50 µg/mL, the neutralization IC50 [36] was 0.22 µg/mL and the neutralization IC80 [36] was 0.22 µg/mL. The neutralization IC50 [37] was 0.65 µg/mL and the neutralization IC80 [37] was 0.65 µg/mL.

In the case of PGDM1400 (antibody), the IC50 [1] is reported as 4.32 µg/mL, the IC80 [1] is reported as > 50 µg/mL and the IC50 [2] is reported as 0.049 µg/mL. For the same substance, the IC80 [2] was 0.23 µg/mL, the IC50 [3] was < 0.001 µg/mL and the IC80 [3] was 0.004 µg/mL. The IC50 [4] was 0.001 µg/mL, the IC80 [4] was 0.021 µg/mL and the IC50, titer in TZM.bl cells [5] was 0.088 µg/mL. The IC80, titer in TZM.bl cells [5] was 0.393 µg/mL, the IC50, titer in TZM.bl cells [6] was 0.025 µg/mL and the IC80, titer in TZM.bl cells [6] was 1.28 µg/mL. It also gave an IC50, titer in TZM.bl cells [7] of 0.005 µg/mL, an IC80, titer in TZM.bl cells [7] of 0.032 µg/mL and an IC50 [8] of 0.039 µg/mL. The IC80 [8] was 0.786 µg/mL, the IC50, titer in TZM.bl cells [9] was 0.671 µg/mL and the IC80, titer in TZM.bl cells [9] was 2 µg/mL. The IC50, titer in TZM.bl cells [10] was 0.013 µg/mL, the IC80, titer in TZM.bl cells [10] was 0.289 µg/mL and the IC50 [11] was > 50 µg/mL. For the same substance, the IC80 [11] was > 50 µg/mL, the IC50 [12] was > 50 µg/mL and the IC80 [12] was > 50 µg/mL. The IC50, titer in TZM.bl cells [13] was > 50 µg/mL, the IC80, titer in TZM.bl cells [13] was > 50 µg/mL and the IC50, titer in TZM.bl cells [14] was 0.003 µg/mL. The IC80, titer in TZM.bl cells [14] was 0.039 µg/mL, the IC50 [15] was 0.003 µg/mL and the IC80 [15] was 0.011 µg/mL. The IC50, titer in TZM.bl cells [16] was 0.443 µg/mL, the IC80, titer in TZM.bl cells [16] was 1.29 µg/mL and the IC50, titer in TZM.bl cells [17] was 0.52 µg/mL. For the same substance, the IC80, titer in TZM.bl cells [17] was 10.6 µg/mL, the IC50, titer in TZM.bl cells [18] was 0.002 µg/mL and the IC80, titer in TZM.bl cells [18] was 0.005 µg/mL. The IC50 [19] was < 0.001 µg/mL, the IC80 [19] was 0.002 µg/mL and the IC50 [20] was 0.007 µg/mL. The IC80 [20] was 0.021 µg/mL, the IC50 [21] was 0.001 µg/mL and the IC80 [21] was 0.007 µg/mL. For the same substance, the IC50 [22] was > 50 µg/mL, the IC80 [22] was > 50 µg/mL and the IC50 [23] was 0.004 µg/mL. The IC80 [23] was 0.014 µg/mL, the IC50 [24] was 0.015 µg/mL and the IC80 [24] was 0.26 µg/mL. The IC50 [25] was 0.002 µg/mL, the IC80 [25] was 0.008 µg/mL and the IC50 [26] was 0.694 µg/mL. The IC80 [26] was > 50 µg/mL, the IC50 [27] was < 0.001 µg/mL and the IC80 [27] was 0.003 µg/mL. It also gave an IC50, titer in TZM.bl cells [28] of 0.01 µg/mL, an IC80, titer in TZM.bl cells [28] of 0.033 µg/mL and an IC50 [29] of 0.166 µg/mL. For the same substance, the IC80 [29] was > 50 µg/mL, the IC50 [30] was < 0.001 µg/mL and the IC80 [30] was 0.002 µg/mL. The IC50, titer in TZM.bl cells [31] was 0.003 µg/mL, the IC80, titer in TZM.bl cells [31] was 0.012 µg/mL and the IC50 [32] was 0.447 µg/mL. The IC80 [32] was 2.19 µg/mL, the IC50 [33] was 0.436 µg/mL and the IC80 [33] was 6.53 µg/mL. For the same substance, the IC50, titer in TZM.bl cells [34] was > 50 µg/mL, the IC80, titer in TZM.bl cells [34] was > 50 µg/mL and the IC50, titer in TZM.bl cells [35] was 0.055 µg/mL. The IC80, titer in TZM.bl cells [35] was 1.45 µg/mL, the IC50 [36] was 0.057 µg/mL and the IC80 [36] was 0.382 µg/mL. The IC50 [37] was 0.002 µg/mL and the IC80 [37] was 0.011 µg/mL.
